Experimental data from patent publication EP4059949A1 (AFFILOGIC, dated 2022).

Key:
[1] = biological target: complement component C3b (obtained after hydrolysis of C3) (UniProt P01024); assay: biolayer interferometry
[2] = biological target: T1, complement component C3b (obtained after hydrolysis of C3) (UniProt P01024 23-667; P01024 749-1663); assay: biolayer interferometry; B10 made recombinantly in E. coli
[3] = biological target: T1, complement component C3b (obtained …); assay: biolayer interferometry; B10 made by full chemical synthesis
[4] = biological target: T1, complement component C3b (obtained …); assay: biolayer interferometry (Octet RED96), GFP tagged Nanofitin captured by anti-GFP Nanofitin, C3b in solution, 1:1 fit

T1 sequence (P01024 23-667 limits assumed, chain 1 of 2): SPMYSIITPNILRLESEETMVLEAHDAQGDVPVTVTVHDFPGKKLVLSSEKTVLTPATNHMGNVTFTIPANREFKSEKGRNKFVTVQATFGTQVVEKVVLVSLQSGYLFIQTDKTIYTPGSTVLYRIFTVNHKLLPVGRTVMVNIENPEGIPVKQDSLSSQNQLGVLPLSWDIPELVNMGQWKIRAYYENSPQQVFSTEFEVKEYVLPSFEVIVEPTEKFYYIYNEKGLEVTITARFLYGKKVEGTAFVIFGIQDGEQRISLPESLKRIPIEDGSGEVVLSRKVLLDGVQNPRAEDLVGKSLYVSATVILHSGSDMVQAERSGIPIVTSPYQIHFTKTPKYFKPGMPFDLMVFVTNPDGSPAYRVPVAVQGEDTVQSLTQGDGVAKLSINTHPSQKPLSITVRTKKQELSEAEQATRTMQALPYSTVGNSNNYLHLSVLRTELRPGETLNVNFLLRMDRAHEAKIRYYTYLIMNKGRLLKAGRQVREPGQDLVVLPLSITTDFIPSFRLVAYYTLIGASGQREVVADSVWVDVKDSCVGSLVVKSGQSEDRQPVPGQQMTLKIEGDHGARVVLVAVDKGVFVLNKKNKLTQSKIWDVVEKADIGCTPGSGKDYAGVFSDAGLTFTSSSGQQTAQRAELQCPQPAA
T1 sequence (P01024 749-1663 limits assumed, chain 2 of 2): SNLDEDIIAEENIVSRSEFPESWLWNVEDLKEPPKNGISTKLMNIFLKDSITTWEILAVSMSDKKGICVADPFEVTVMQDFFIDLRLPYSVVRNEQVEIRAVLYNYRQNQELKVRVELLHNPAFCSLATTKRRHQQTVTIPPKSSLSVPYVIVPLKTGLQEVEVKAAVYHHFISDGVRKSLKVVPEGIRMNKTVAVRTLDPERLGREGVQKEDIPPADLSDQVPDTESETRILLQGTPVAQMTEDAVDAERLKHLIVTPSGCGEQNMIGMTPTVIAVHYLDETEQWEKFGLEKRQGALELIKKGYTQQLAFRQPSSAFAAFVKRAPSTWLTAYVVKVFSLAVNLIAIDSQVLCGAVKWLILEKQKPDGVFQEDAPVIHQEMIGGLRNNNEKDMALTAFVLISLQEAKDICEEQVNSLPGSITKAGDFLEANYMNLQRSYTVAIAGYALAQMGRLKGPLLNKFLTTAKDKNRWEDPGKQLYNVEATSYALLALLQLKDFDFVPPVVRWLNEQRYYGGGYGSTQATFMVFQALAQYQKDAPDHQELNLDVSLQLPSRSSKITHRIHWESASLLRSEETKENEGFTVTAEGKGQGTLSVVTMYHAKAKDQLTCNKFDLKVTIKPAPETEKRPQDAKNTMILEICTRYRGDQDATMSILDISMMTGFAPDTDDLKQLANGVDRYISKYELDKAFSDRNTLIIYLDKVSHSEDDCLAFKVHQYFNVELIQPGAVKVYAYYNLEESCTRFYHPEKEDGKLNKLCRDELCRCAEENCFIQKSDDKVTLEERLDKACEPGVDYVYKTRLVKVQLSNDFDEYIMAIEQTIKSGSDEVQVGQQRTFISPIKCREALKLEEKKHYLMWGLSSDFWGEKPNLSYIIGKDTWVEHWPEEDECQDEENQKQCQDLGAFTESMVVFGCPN
Sequence of complement component C3b (obtained after hydrolysis of C3) (UniProt P01024) (P01024 23-667 limits assumed, chain 1 of 2): as the sequence (P01024 23-667 limits assumed, chain 1 of 2) above
Sequence of complement component C3b (obtained after hydrolysis of C3) (UniProt P01024) (P01024 749-1663 limits assumed, chain 2 of 2): as the sequence (P01024 749-1663 limits assumed, chain 2 of 2) above

| Binder | Kd [1] | Kd [4] | koff [4] | kon [4] | further results |
| --- | --- | --- | --- | --- | --- |
| anti-C3 Nanofitin B10 with N-terminal peptide (10-mers) and C-terminal 30 kDa protein (designed binder, part only; not given: peptide tag and 30 kDa protein, not shown: small tags and cut ends) chain, part: MVKVKFDATGEEKEVDTSKISAVYRTGKDVLFSYDDNGKIGWGYVSEKDAPKELLDLLARAERE | 7.3 nM | – | – | – | – |
| anti-C3 Nanofitin B10 without N- or C-terminal tag (designed binder, also called Nter tag none, Cter tag none) MVKVKFDATGEEKEVDTSKISAVYRTGKDVLFSYDDNGKIGWGYVSEKDAPKELLDLLARAERE | – | – | – | – | Kd [2]: 18.5 nM; Kd [3]: 18 nM |
| anti-C3 Nanofitin B10 with N-terminal 48 kDa protein (designed binder, part only; not given: 48 kDa fusion protein, part only) chain, part: MVKVKFDATGEEKEVDTSKISAVYRTGKDVLFSYDDNGKIGWGYVSEKDAPKELLDLLARAERE | 6.7 nM | – | – | – | – |
| B10 (SEQ ID NO: 25), GFP tagged Nanofitin (designed binder, Variant of Nf1 from off-rate selection; not shown: GFP tag) MVKVKFDATGEEKEVDTSKISAVYRTGKDVLFSYDDNGKIGWGYVSEKDAPKELLDLLARAERE | – | 7.31 nM | 0.000433 s⁻¹ | 59200 M⁻¹ s⁻¹ | – |
| H03 (SEQ ID NO: 26), GFP tagged Nanofitin (designed binder, Variant of Nf1 from off-rate selection; not shown: GFP tag) MVKVKFAATGEEKEVDTSKIANVYRVGKDVLFSYDDNGKIGWGYVSEKDAPKELLDLLARAERE | – | 2.89 nM | 0.000188 s⁻¹ | 65200 M⁻¹ s⁻¹ | – |
